Reference: patent US20220411517A1 (LEO PHARMA A S, published 2022)

Tests used:
human IL-1RAcP on cells [1] = molecular target: T1, human IL-1RAcP on cells (human, UniProt Q9NPH3 21-570); experiment: flow cytometry on primary human dermal fibroblasts expressing endogenous IL-1RAcP (FIG. 4-1)
T1 construct: whole, on cells; also called human IL-1RAcP over-expressing CHO cells; endogenous IL-1RAcP on primary human dermal fibroblasts, keratinocytes, PBMCs, whole blood, skin
Procedure: Cell suspensions were transferred into microtiter plates and antibody samples were added followed by subsequent incubation of plates at 4° C. for 3 hours. Following incubation, cells were washed several time with FACS buffer.

[2] = molecular target: T2, human IL1RAcP domain 1 (AG-12335) (human); experiment: ELISA on directly coated human IL-1RAcP domain 1 (AG-12335), IgG titrated, S/BG
T2 construct: also called domain 1 of human IL-1RAcP
T2 chain: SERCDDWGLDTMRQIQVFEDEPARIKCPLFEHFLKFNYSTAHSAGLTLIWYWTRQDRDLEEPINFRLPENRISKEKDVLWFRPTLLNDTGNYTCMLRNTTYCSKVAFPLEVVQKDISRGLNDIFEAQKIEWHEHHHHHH
Procedure: All were assessed with direct coating of the antigen. […] An anti-His antibody served as positive control.

recombinant rat IL-1RAcP = recombinant rat IL-1RAcP (rat, UniProt Q63621 21-367, limits assumed); experiment: ELISA (FIG. 1-3 cited)
[3] = molecular target: T3, hIL-1RAP(1-367)_F-chLys_Avi (human, biotinylated (Avi tag) in SPR and ELISA binning; unlabeled in SET); experiment: solution equilibrium titration (SET), ECL read-out, IgG
T3 construct: also called human IL-1RAcP (AG-12210)
Procedure: (§1) MSD SulfoTAG™ NHS-Ester (Meso Scale Diagnostics) according to the manufacturer's instructions. […] Serial dilutions of unlabeled antigen were prepared, starting with a concentration at least 10 times higher than the expected KD. Wells without antigen were used to determine Bₘₐₓ values;
(§2) wells containing only assay buffer were used to determine background. […] MSD plates were coated with antigen on standard plates (30 μL per well). After washing the plate with PBS with 0.05% Tween 20, the equilibrated samples were transferred to the plates and incubated for 20 min. […] After washing the MSD plate and adding 30 μL/well MSD Read Buffer T with surfactant, electrochemiluminescence signals were detected using a MESO SECTOR S 600 (Meso Scale Diagnostics).
(§3) The data was evaluated with XLfit (IDBS) software applying customized fitting models.

[4] = molecular target: T4, cyIL-1RAP(1-367)_F-chLys_Avi (cynomolgus, biotinylated (Avi tag) in SPR; unlabeled in SET); experiment: SET, ratio of KD values
T4 construct: cynomolgus IL-1RAcP (21-367) is UniProt A0A2K5X5J5; also called cynomolgus IL-1RAcP (AG-12211)

[5] = molecular target: T3, hIL-1RAP(1-367)_F-chLys_Avi; experiment: SET, ratio of KD values
[6] = molecular target: T5, human IL1RAcP domain 3 (AG-12127) (human); experiment: ELISA on directly coated human IL-1RAcP domain 3 (AG-12127), IgG titrated, S/BG
T5 construct: also called domain 3 of human IL-1RAcP
T5 chain: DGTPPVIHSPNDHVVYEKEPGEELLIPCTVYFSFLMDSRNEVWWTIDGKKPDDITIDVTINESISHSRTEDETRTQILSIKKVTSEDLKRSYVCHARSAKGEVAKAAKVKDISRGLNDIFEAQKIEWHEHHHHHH

[7] = molecular target: T4, cyIL-1RAP(1-367)_F-chLys_Avi; experiment: solution equilibrium titration (SET), ECL read-out, IgG
Procedure: as §1, §2, §3

[8] = molecular target: T6, mouse (AG-12212) IL-1RAcP (mouse, UniProt Q61730 21-367, limits assumed); experiment: ELISA, Fc-capture mode of the IgGs (FIG. 1-3)
T6 construct: Recombinant tagged antigen; also called recombinant mouse IL-1RAcP; mouse IL-1RAP
Source text: Bound antibodies were detected using respective alkaline-phosphatase (AP) coupled secondary antibodies in combination with ‘AttoPhos’ fluorescence substrate. Multiple washing steps have been performed in between individual assay steps.

[9] = molecular target: T7, cynomolgus IL-1RAcP on cells (cynomolgus, UniProt A0A2K5X5J5 21-570); experiment: cell-based or functional assay
human IL-1RAcP on cells [10] = molecular target: T1, human IL-1RAcP on cells; experiment: cell-based or functional assay
[11] = molecular target: T7, cynomolgus IL-1RAcP on cells; experiment: cell-based or functional assay; remark: listed apart in the source
human IL-1RAcP on cells [12] = molecular target: T1, human IL-1RAcP on cells; experiment: cell-based or functional assay; remark: listed apart in the source
[13] = molecular target: T8, human IL1RAcP domain 1/2 (AG-12337) (human); experiment: ELISA on directly coated human IL-1RAcP domain 1/2 (AG-12337), IgG1f_AEASS titrated, S/BG
T8 construct: also called domain 1/2 of human IL-1RAcP

B1: Y024149_h_IgG1f_AEASS (antibody, V domains shown)
VH: EVQLVESGGGLVQPGGSLRLSCAASGGTFGGSAMHWVRQAPGKGLVWVSRILTYGGIATYAESVKGRFTISRDNAKNTLYLQMNSLRAEDTAVYYCARGSSEYPKFDIWGQGTLVTVSS
VL: DIQMTQSPSTLSASVGDRVTITCRASQSISSWLAWYQQKPGKAPKLLIYDASSLESGVPSRFSGSGSGTEFTLTISSLQPEDFATYYCHQLLIYPHTFGQGTKVEIKR
notes: Human IgG1f with AEASS effector-silencing residues, kappa light chain
EC50 (human IL-1RAcP on cells [1]): 1.48 nM
binding result [2]: no binding (tested: 2e-7 M)
binding result (recombinant rat IL-1RAcP): no binding
Kd [3]: 0.003 nM
fold stronger KD than reference R001031 (CAN04) [4]: ~16 fold
fold stronger KD than reference R001032 (1A05) [4]: ~15 fold
fold stronger KD than reference R001031 (CAN04) [5]: ~7 fold
fold stronger KD than reference R001032 (1A05) [5]: ~3.5 fold
binding result [6]: no binding (tested: 2e-7 M)
Kd [7]: 0.001 nM
binding result [8]: no binding
IC50, IFN-γ release, cynomolgus whole blood stimulated with 300 ng/ml rcIL-33 [9]: ~15 nM
IC50, IL-6 release, cynomolgus whole blood stimulated with 50 ng/ml rcIL-1β [9]: ~50 nM
IC50, IL-6 release, cynomolgus whole blood stimulated with IL-1β [9]: ~70 nM
IC50, IL-6 release, human whole blood stimulated with 1 ng/ml rhIL-1β (human IL-1RAcP on cells [10]): ~10 nM
IC50, IL-6 release, human whole blood stimulated with 5 ng/ml rhIL-1β (human IL-1RAcP on cells [10]): ~8 nM
IC50, IL-6 release, human whole blood stimulated with 10 ng/ml rhIL-1β (human IL-1RAcP on cells [10]): ~20 nM
IC50, IL-8 release, CyDFa stimulated with cynomolgus IL-1β [11]: 0.032 nM
IC50, IFNγ release, PBMC stimulated with IL-1β (human IL-1RAcP on cells [12]): 1.7 nM
IC50, IFNγ release, PBMC stimulated with IL-33 (human IL-1RAcP on cells [12]): 0.2 nM
IC50, IL-8 release, HDFa stimulated with IL-1α (human IL-1RAcP on cells [12]): 1.1 nM
IC50, IL-8 release, HDFa stimulated with IL-36α (human IL-1RAcP on cells [12]): 0.039 nM
IC50, IL-8 release, HDFa stimulated with IL-36β (human IL-1RAcP on cells [12]): 0.06 nM
IC50, IL-8 release, HDFa stimulated with IL-36γ (human IL-1RAcP on cells [12]): 0.026 nM
IC50, IL-8 release, HEKa stimulated with IL-1β (human IL-1RAcP on cells [12]): 31 nM
IC50, IL-8 release, HEKa stimulated with IL-36β (human IL-1RAcP on cells [12]): 0.094 nM
EC50 (read off the curve) [13]: ~5 nM
